Data reported in IntAct's records for PubMed 22045334.

B1: Mothers against decapentaplegic homolog 3 (Homo sapiens), P84022 (parent)
chain: MSSILPFTPPIVKRLLGWKKGEQNGQEEKWCEKAVKSLVKKLKKTGQLDELEKAITTQNVNTKCITIPRSLDGRLQVSHRKGLPHVIYCRLWRWPDLHSHHELRAMELCEFAFNMKKDEVCVNPYHYQRVETPVLPPVLVPRHTEIPAEFPPLDDYSHSIPENTNFPAGIEPQSNIPETPPPGYLSEDGETSDHQMNHSMDAGSPNLSPNPMSPAHNNLDLQPVTYCEPAFWCSISYYELNQRVGETFHASQPSMTVDGFTDPSNSERFCLGLLSNVNRNAAVELTRRHIGRGVRLYYIGGEVFAECLSDSAIFVQSPNCNQRYGWHPATVCKIPPGCNLKIFNNQEFAALLAQSVNQGFEAVYQLTRMCTIRMSFVKGWGAEYRRQTVTSTPCWIELHLNGPLQWLDKVLTQMGSPSIRCSSVS

Variants of: B1
Settings: with smuf2_human SMURF2, Q9HAU4

Row | Variant | effect of a mutation on the interaction
1 | T179V | disrupting interaction
2 | T179V;S204A;S208A;S213A | disrupting interaction

Variants of: B1
Settings: with smad4_human SMAD4, Q13485

Row | Variant | effect of a mutation on the interaction
3 | K333R;K341R;K378R;K409R | decreasing interaction
4 | K333R;K378R;K409R | decreasing interaction

Variants of: B1
Settings: with ubc_human UBC

Row | Variant | effect of a mutation on the interaction
5 | K333R | decreasing interaction
6 | K341R | decreasing interaction
7 | K378R | decreasing interaction
8 | K409R | decreasing interaction
